The target of assay [1] is BAX. In words: Strep-tactin pull-down from HeLa lysate, label-free quantification mass spectrometry. The note with it: three biological repeats measured in three technical repeats each; -log10(p-value) est. 1.7; read off a plot.
Assay [2] concerns the target COPS7A. The description is as above. The note with it: three biological repeats measured in three technical repeats each; -log10(p-value) est. 2.2; read off a plot.
Assay [3] has as its target EIF1. The description is as above. The note with it: three biological repeats measured in three technical repeats each; -log10(p-value) est. 1.2; read off a plot.
Assay [4] has as its target FAM91A1. The assay is described as above. The note with it: three biological repeats measured in three technical repeats each; -log10(p-value) est. 3.0; read off a plot.
In assay [5] the target is GPHN. The description is as above. The note with it: three biological repeats measured in three technical repeats each; -log10(p-value) est. 1.3; read off a plot.
The target in assay [6] is HSP90AB4P. The description is as above. The note with it: three biological repeats measured in three technical repeats each; -log10(p-value) est. 1.0; read off a plot.
In assay [7] the target is KIF18B (UniProt Q86Y91). The description is as above. The note with it: three biological repeats measured in three technical repeats each; -log10(p-value) est. 1.5; read off a plot.
UniProt Q86Y91, sequence (Q86Y91 whole entry, looked up): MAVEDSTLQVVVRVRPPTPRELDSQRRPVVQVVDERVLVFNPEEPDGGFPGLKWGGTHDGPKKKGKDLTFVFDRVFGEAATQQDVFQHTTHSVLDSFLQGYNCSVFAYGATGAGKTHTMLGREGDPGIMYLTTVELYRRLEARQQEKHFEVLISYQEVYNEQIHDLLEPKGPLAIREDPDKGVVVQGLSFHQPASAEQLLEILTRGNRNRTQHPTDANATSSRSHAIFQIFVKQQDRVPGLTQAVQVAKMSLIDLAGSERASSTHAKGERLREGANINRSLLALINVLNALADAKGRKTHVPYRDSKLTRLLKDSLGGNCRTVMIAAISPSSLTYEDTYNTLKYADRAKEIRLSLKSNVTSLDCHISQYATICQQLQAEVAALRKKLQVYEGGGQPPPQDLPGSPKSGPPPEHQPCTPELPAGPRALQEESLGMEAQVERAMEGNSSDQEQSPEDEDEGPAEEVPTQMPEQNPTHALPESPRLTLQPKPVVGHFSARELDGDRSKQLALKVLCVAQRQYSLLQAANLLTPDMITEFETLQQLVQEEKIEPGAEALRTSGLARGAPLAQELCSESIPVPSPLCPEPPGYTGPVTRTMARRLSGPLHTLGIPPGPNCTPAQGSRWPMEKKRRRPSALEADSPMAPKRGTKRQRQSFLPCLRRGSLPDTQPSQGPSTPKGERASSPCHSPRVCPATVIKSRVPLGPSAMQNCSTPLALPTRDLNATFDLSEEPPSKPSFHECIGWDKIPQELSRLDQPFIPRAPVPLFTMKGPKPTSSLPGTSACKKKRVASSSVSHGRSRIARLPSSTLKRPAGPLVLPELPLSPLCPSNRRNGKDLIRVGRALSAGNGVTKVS
Assay [8] deals with LYST. The assay is described as above. The note with it: three biological repeats measured in three technical repeats each; -log10(p-value) est. 0.97; read off a plot.
For assay [9], the target named is NUP35. The description is as above. The note with it: three biological repeats measured in three technical repeats each; -log10(p-value) est. 3.6; read off a plot.
The target of assay [10] is Nbla03646. Described as above. The note with it: three biological repeats measured in three technical repeats each; -log10(p-value) est. 2.1; read off a plot.
Assay [11] deals with RacGAP1 (UniProt Q9H0H5). The description is as above. The note with it: three biological repeats measured in three technical repeats each; -log10(p-value) est. 2.8; read off a plot.
UniProt Q9H0H5, sequence (Q9H0H5 whole entry, looked up): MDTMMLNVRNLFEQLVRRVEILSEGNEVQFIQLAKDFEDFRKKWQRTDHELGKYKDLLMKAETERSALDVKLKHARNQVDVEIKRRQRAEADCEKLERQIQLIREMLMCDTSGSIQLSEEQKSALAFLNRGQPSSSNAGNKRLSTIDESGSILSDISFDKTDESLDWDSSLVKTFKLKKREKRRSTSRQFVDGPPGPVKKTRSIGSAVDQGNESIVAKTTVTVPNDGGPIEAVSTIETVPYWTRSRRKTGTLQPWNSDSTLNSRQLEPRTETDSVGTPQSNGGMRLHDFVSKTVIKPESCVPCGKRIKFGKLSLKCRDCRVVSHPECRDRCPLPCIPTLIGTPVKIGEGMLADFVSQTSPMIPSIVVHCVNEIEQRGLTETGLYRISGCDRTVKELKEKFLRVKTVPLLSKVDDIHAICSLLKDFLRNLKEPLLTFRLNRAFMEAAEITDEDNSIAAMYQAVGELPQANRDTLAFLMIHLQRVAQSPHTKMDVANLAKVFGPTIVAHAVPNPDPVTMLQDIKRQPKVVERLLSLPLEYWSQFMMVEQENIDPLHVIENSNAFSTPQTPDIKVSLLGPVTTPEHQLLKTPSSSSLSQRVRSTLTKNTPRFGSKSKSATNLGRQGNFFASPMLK
Assay [12] deals with SMG8. The assay is described as above. The note with it: three biological repeats measured in three technical repeats each; -log10(p-value) est. 2.2; read off a plot.
Assay [13] concerns the target TIMM13. Described as above. The note with it: three biological repeats measured in three technical repeats each; -log10(p-value) est. 2.6; read off a plot.
In assay [14] the target is TUBA1A. The assay is described as above. The note with it: three biological repeats measured in three technical repeats each; -log10(p-value) est. 3.7; read off a plot.
Assay [15] addresses TUBA3C. The description is as above. The note with it: three biological repeats measured in three technical repeats each; -log10(p-value) est. 4.2; read off a plot.
For assay [16], the target named is TUBB2B. Described as above. The note with it: three biological repeats measured in three technical repeats each; -log10(p-value) est. 3.6; read off a plot.
For assay [17], the target named is TUBB4A. Described as above. The note with it: three biological repeats measured in three technical repeats each; -log10(p-value) est. 3.8; read off a plot.
Assay [18] addresses UBL4A. The description is as above. The note with it: three biological repeats measured in three technical repeats each; -log10(p-value) est. 1.4; read off a plot.
Assay [19] addresses ANAPC10. In words: Strep-tactin pull-down, mass spectrometry spectral counting. The note with it: complexes SUMOylated in vitro, HeLa lysate added; three biological repeats measured in three technical repeats each.
Assay [20] has as its target ANAPC13. The description is as above. The note with it: complexes SUMOylated in vitro, HeLa lysate added; three biological repeats measured in three technical repeats each.
Assay [21] has as its target ANAPC15. Described as above. The note with it: complexes SUMOylated in vitro, HeLa lysate added; three biological repeats measured in three technical repeats each.
The target in assay [22] is ANAPC16. The description is as above. The note with it: complexes SUMOylated in vitro, HeLa lysate added; three biological repeats measured in three technical repeats each.
For assay [23], the target named is ANAPC1. Described as above. The note with it: complexes SUMOylated in vitro, HeLa lysate added; three biological repeats measured in three technical repeats each.
In assay [24] the target is ANAPC2. The description is as above. The note with it: complexes SUMOylated in vitro, HeLa lysate added; three biological repeats measured in three technical repeats each.
The target of assay [25] is ANAPC5. Described as above. The note with it: complexes SUMOylated in vitro, HeLa lysate added; three biological repeats measured in three technical repeats each.
For assay [26], the target named is CDC16. Described as above. The note with it: complexes SUMOylated in vitro, HeLa lysate added; three biological repeats measured in three technical repeats each.
In assay [27] the target is CDC23. The assay is described as above. The note with it: complexes SUMOylated in vitro, HeLa lysate added; three biological repeats measured in three technical repeats each.
Assay [28] deals with CDC26. The assay is described as above. The note with it: complexes SUMOylated in vitro, HeLa lysate added; three biological repeats measured in three technical repeats each.
For assay [29], the target named is CDC27. Described as above. The note with it: complexes SUMOylated in vitro, HeLa lysate added; three biological repeats measured in three technical repeats each.
For assay [30], the target named is ANAPC10. As to the kind of experiment: Strep-tactin pull-down, label-free quantification mass spectrometry. The note with it: complexes SUMOylated in vitro, HeLa lysate added; three biological repeats measured in three technical repeats each.
Assay [31] has as its target ANAPC13. The assay is described as above. The note with it: complexes SUMOylated in vitro, HeLa lysate added; three biological repeats measured in three technical repeats each.
In assay [32] the target is ANAPC15. The description is as above. The note with it: complexes SUMOylated in vitro, HeLa lysate added; three biological repeats measured in three technical repeats each.
Assay [33] addresses ANAPC16. The assay is described as above. The note with it: complexes SUMOylated in vitro, HeLa lysate added; three biological repeats measured in three technical repeats each.
The target in assay [34] is ANAPC1. The description is as above. The note with it: complexes SUMOylated in vitro, HeLa lysate added; three biological repeats measured in three technical repeats each.
Assay [35] deals with ANAPC2. The assay is described as above. The note with it: complexes SUMOylated in vitro, HeLa lysate added; three biological repeats measured in three technical repeats each.
In assay [36] the target is ANAPC5. Described as above. The note with it: complexes SUMOylated in vitro, HeLa lysate added; three biological repeats measured in three technical repeats each.
Assay [37] has as its target CDC16. The assay is described as above. The note with it: complexes SUMOylated in vitro, HeLa lysate added; three biological repeats measured in three technical repeats each.
Assay [38] deals with CDC23. The description is as above. The note with it: complexes SUMOylated in vitro, HeLa lysate added; three biological repeats measured in three technical repeats each.
The target in assay [39] is CDC26. The description is as above. The note with it: complexes SUMOylated in vitro, HeLa lysate added; three biological repeats measured in three technical repeats each.
In assay [40] the target is CDC27. Described as above. The note with it: complexes SUMOylated in vitro, HeLa lysate added; three biological repeats measured in three technical repeats each.

Experimental findings from article PMC5856775 are described below.

As for “SUMOylated recombinant APC/C containing APC4 wild type (from UniProt Q9UJX5;P55854;Q9UJX3;Q9NYG5;Q9H1A4;Q9UJX6;P30260;Q9UJX4;Q9UJX2;P60006) K772R; K798R”, the other: Ratio (log2) of protein intensities, wild-type APC4 / mutant APC4 is 1.3 log2 in [1]; 1 log2 in assay [2]; -1.6 log2 in assay [3]; 2.4 log2 in assay [4]; -1.7 log2 in assay [5]; 2.5 log2 in [6]. Further, the other: Ratio (log2) of protein intensities, wild-type APC4 / mutant APC4 is 1.8 log2 in assay [7]; 3.8 log2 in assay [8]; -1.4 log2 in [9]; -2.9 log2 in [10]; -1.6 log2 in assay [11]; -1 log2 in [12]. For the same substance, the other: Ratio (log2) of protein intensities, wild-type APC4 / mutant APC4 was -1.8 log2 in assay [13]; -1.5 log2 in assay [14]; -1.9 log2 in [15]; 4.3 log2 in assay [16]; -1 log2 in assay [17]; -1.4 log2 in [18].
On to “Strep-tagged APC4 wild type of the recombinant APC/C, SUMOylated in vitro (from UniProt Q9UJX5;P55854) K772R; K798R”, for which the other: MS/MS ratio (WT/mutant, log2) turned out to be 0.34 log2 in assay [19]; 0.12 log2 in [20]; 0.2 log2 in [21]; 0.19 log2 in assay [22]; 0.26 log2 in assay [23]; 0.08 log2 in [24]. For the same substance, the other: MS/MS ratio (WT/mutant, log2) was 0.17 log2 in assay [25]; 0.23 log2 in assay [26]; 0.31 log2 in [27]; 0.17 log2 in [28]; 0.24 log2 in assay [29]. The other: LFQ ratio (WT/mutant, log2) came out at 0.44 log2 in assay [30]; 0.25 log2 in assay [31]; 0.4 log2 in assay [32]; 0.37 log2 in assay [33]; 0.35 log2 in assay [34]; 0.4 log2 in assay [35]. In addition, the other: LFQ ratio (WT/mutant, log2) in assay [36] came out at 0.22 log2; in assay [37], 0.34 log2; in assay [38], 0.33 log2; in [39], 0.49 log2; in assay [40], 0.36 log2.
